Source: paper PMC8298264, “Function of cofactor Akirin2 in the regulation of gene expression in model human neutrophil-like HL60 cells” (Bioscience Reports, 2021)

System: human HL60 cells
Experiment: SWATH-MS proteomics, differential protein representation, akirin2 KO vs WT HL60 cells
Type: cell-based
Conditions: Over-represented in KO; KO vs WT HL60 cells
Method: Total proteins were extracted from WT and akirin2 KO HL60 cells using the AllPrep DNA/RNA/Protein Mini Kit (Qiagen) and protein concentration was determined using the BCA Protein Assay with BSA (Sigma–Aldrich) as standard. Protein extracts (150 µg per sample, n=3 biological replicates) from each WT and KO cells were trypsin digested using the FASP Protein Digestion Kit (Expedeon Ltd., Abcam, Cambridge, U.K.) and sequencing grade trypsin (Promega, Madison, WI, U.S.A.) following manufacturer’s recommendations. The resulting peptides were finally desalted on to OMIX Pipette tips C18 (Agilent Technologies, Santa Clara, CA, U.S.A.), dried down and stored at −20 °C until mass spectrometry analysis. […] Three micrograms of each protein digest from the three biological replicates of WT and akirin2 KO HL60 cells were used for the generation of the reference spectral ion library as part of the SWATH-MS analysis.
Peptides were eluted in a 120-min gradient from 5 to 30% solvent B in solvent A followed by 15-min gradient from 30 to 60% solvent B in solvent A (solvent A: 0.1% formic acid in water, solvent B: 0.1% formic acid in acetonitrile) and directly injected into the mass spectrometer for analysis. For IDA experiments, the mass spectrometer was set to scanning full spectra (350–1400 m/z) using 250 ms accumulation time per spectrum, followed by up to 50 MS/MS scans (100–1500 m/z). Candidate ions with a charge state between +2 and +5 counts per second above a minimum threshold of 100 were isolated for fragmentation. One MS/MS spectrum was collected for 100 ms, before adding those precursor ions to the exclusion list for 15 s (mass spectrometer operated by Analyst TF 1.6, AB Sciex). Dynamic background subtraction was turned off. MS/MS analyses were recorded in high-sensitivity mode with rolling collision energy on and a collision energy spread of 5. For SWATH quantitative analysis, six independent samples (three replicates from WT and akirin2 KO HL60 cells, 5 µg each) were subjected to the cyclic DIA of mass spectra using the SWATH variable windows calculator (V 1.0, AB Sciex) and the SWATH acquisition method editor (AB Sciex), similar to established methods. […] For these experiments, a 50-ms survey scan (350–1400 m/z) was acquired at the beginning of each cycle, and SWATH–MS/MS spectra were collected from 100–1500 m/z for 70 ms at high-sensitivity mode, resulting in a cycle time of 3.6 s. Collision energy for each window was determined according to the calculation for a charge +2 ion-centered upon the window with a collision energy spread of 15. To create a spectral library of all the detectable peptides in the samples, the IDA MS raw files were combined and subjected to database search in unison using ProteinPilot software v. 5.0.1 (AB Sciex) with the Paragon algorithm. […] The detected protein threshold was set at 0.05. An independent false discovery rate (FDR) analysis, using the target–decoy approach provided by Protein Pilot (AB Sciex; https://sciex.com/products/software/proteinpilot-software), was used to assess the quality of identifications. Positive identifications were considered when identified proteins reached 1% of global FDR. […] Global normalization was performed according to the Total Area Sums (TAS) of all detected proteins in the samples. […] Heatmaps were prepared using the Heatmapper (http://www.heatmapper.ca/expression/) with average linkage and Euclidean distance measurement method.

Molecule	Fold Change	Log (Fold Change)
sp¦Q9Y244¦POMP_HUMAN (protein, UniProt Q9Y244 1-141, looked up) Proteasome maturation protein: MNARGLGSELKDSIPVTELSASGPFESHDLLRKGFSCVKNELLPSHPLELSEKNFQLNQDKMNFSTLRNIQGLFAPLKLQMEFKAVQQVQRLPFLSSSNLSLDVLRGNDETIGFEDILNDPSQSEVMGEPHLMVEYKLGLL	1.341	0.1275
sp¦P60981¦DEST_HUMAN (protein, UniProt P60981 2-165, looked up) Destrin: ASGVQVADEVCRIFYDMKVRKCSTPEEIKKRKKAVIFCLSADKKCIIVEEGKEILVGDVGVTITDPFKHFVGMLPEKDCRYALYDASFETKESRKEELMFFLWAPELAPLKSKMIYASSKDAIKKKFQGIKHECQANGPEDLNRACIAEKLGGSLIVAFEGCPV	1.321	0.1208
sp¦Q16543¦CDC37_HUMAN (protein, UniProt Q16543 1-378, looked up) Hsp90 co-chaperone Cdc37: MVDYSVWDHIEVSDDEDETHPNIDTASLFRWRHQARVERMEQFQKEKEELDRGCRECKRKVAECQRKLKELEVAEGGKAELERLQAEAQQLRKEERSWEQKLEEMRKKEKSMPWNVDTLSKDGFSKSMVNTKPEKTEEDSEEVREQKHKTFVEKYEKQIKHFGMLRRWDDSQKYLSDNVHLVCEETANYLVIWCIDLEVEEKCALMEQVAHQTIVMQFILELAKSLKVDPRACFRQFFTKIKTADRQYMEGFNDELEAFKERVRGRAKLRIEKAMKEYEEEERKKRLGPGGLDPVEVYESLPEELQKCFDVKDVQMLQDAISKMDPTDAKYHMQRCIDSGLWVPNSKASEAKEGEEAGPGDPLLEAVPKTGDEKDVSV	1.314	0.1187
sp¦O14737¦PDCD5_HUMAN (protein, UniProt O14737 2-125, looked up) Programmed cell death protein …: ADEELEALRRQRLAELQAKHGDPGDAAQQEAKHREAEMRNSILAQVLDQSARARLSNLALVKPEKTKAVENYLIQMARYGQLSEKVSEQGLIEILKKVSQQTEKTTTVKFNRRKVMDSDEDDDY	1.307	0.1162
sp¦O00154¦BACH_HUMAN (protein, UniProt O00154 1-380, looked up) Cytosolic acyl coenzyme A …: MKLLARALRLCEFGRQASSRRLVAGQGCVGPRRGCCAPVQVVGPRADLPPCGACITGRIMRPDDANVAGNVHGGTILKMIEEAGAIISTRHCNSQNGERCVAALARVERTDFLSPMCIGEVAHVSAEITYTSKHSVEVQVNVMSENILTGAKKLTNKATLWYVPLSLKNVDKVLEVPPVVYSRQEQEEEGRKRYEAQKLERMETKWRNGDIVQPVLNPEPNTVSYSQSSLIHLVGPSDCTLHGFVHGGVTMKLMDEVAGIVAARHCKTNIVTASVDAINFHDKIRKGCVITISGRMTFTSNKSMEIEVLVDADPVVDSSQKRYRAASAFFTYVSLSQEGRSLPVPQLVPETEDEKKRFEEGKGRYLQMKAKRQGHAEPQP	1.305	0.1157
sp¦P11279¦LAMP1_HUMAN (protein, UniProt P11279 29-417, looked up) Lysosome-associated membrane …: AMFMVKNGNGTACIMANFSAAFSVNYDTKSGPKNMTFDLPSDATVVLNRSSCGKENTSDPSLVIAFGRGHTLTLNFTRNATRYSVQLMSFVYNLSDTHLFPNASSKEIKTVESITDIRADIDKKYRCVSGTQVHMNNVTVTLHDATIQAYLSNSSFSRGETRCEQDRPSPTTAPPAPPSPSPSPVPKSPSVDKYNVSGTNGTCLLASMGLQLNLTYERKDNTTVTRLLNINPNKTSASGSCGAHLVTLELHSEGTTVLLFQFGMNASSSRFFLQGIQLNTILPDARDPAFKAANGSLRALQATVGNSYKCNAEEHVRVTKAFSVNIFKVWVQAFKVEGGQFGSVEECLLDENSMLIPIAVGGALAGLVLIVLIAYLVGRKRSHAGYQTI	1.301	0.1143
sp¦P27348¦1433T_HUMAN (protein, UniProt P27348 1-245, looked up) 14-3-3 protein theta: MEKTELIQKAKLAEQAERYDDMATCMKAVTEQGAELSNEERNLLSVAYKNVVGGRRSAWRVISSIEQKTDTSDKKLQLIKDYREKVESELRSICTTVLELLDKYLIANATNPESKVFYLKMKGDYFRYLAEVACGDDRKQTIDNSQGAYQEAFDISKKEMQPTHPIRLGLALNFSVFYYEILNNPELACTLAKTAFDEAIAELDTLNEDSYKDSTLIMQLLRDNLTLWTSDSAGEECDAAEGAEN	1.296	0.1126

Same assay, conditions: SWATH-MS, akirin2 KO vs WT HL60 cells; over-represented in KO

Molecule	Fold Change	Log (Fold Change)
Inter-alpha-trypsin inhibitor heavy chain H2 (protein, UniProt P19823 55-702, looked up) Inter-alpha-trypsin inhibitor …: SLPGESEEMMEEVDQVTLYSYKVQSTITSRMATTMIQSKVVNNSPQPQNVVFDVQIPKGAFISNFSMTVDGKTFRSSIKEKTVGRALYAQARAKGKTAGLVRSSALDMENFRTEVNVLPGAKVQFELHYQEVKWRKLGSYEHRIYLQPGRLAKHLEVDVWVIEPQGLRFLHVPDTFEGHFDGVPVISKGQQKAHVSFKPTVAQQRICPNCRETAVDGELVVLYDVKREEKAGELEVFNGYFVHFFAPDNLDPIPKNILFVIDVSGSMWGVKMKQTVEAMKTILDDLRAEDHFSVIDFNQNIRTWRNDLISATKTQVADAKRYIEKIQPSGGTNINEALLRAIFILNEANNLGLLDPNSVSLIILVSDGDPTVGELKLSKIQKNVKENIQDNISLFSLGMGFDVDYDFLKRLSNENHGIAQRIYGNQDTSSQLKKFYNQVSTPLLRNVQFNYPHTSVTDVTQNNFHNYFGGSEIVVAGKFDPAKLDQIESVITATSANTQLVLETLAQMDDLQDFLSKDKHADPDFTRKLWAYLTINQLLAERSLAPTAAAKRRITRSILQMSLDHHIVTPLTSLVIENEAGDERMLADAPPQDPSCCSGALYYGSKVVPDSTPSWANPSPTPVISMLAQGSQVLESTPPPHVMRVEND	3.859	0.5865
Myristoylated alanine-rich C-kinase substrate (protein, UniProt P29966 2-332, looked up) Myristoylated alanine-rich …: GAQFSKTAAKGEAAAERPGEAAVASSPSKANGQENGHVKVNGDASPAAAESGAKEELQANGSAPAADKEEPAAAGSGAASPSAAEKGEPAAAAAPEAGASPVEKEAPAEGEAAEPGSPTAAEGEAASAASSTSSPKAEDGATPSPSNETPKKKKKRFSFKKSFKLSGFSFKKNKKEAGEGGEAEAPAAEGGKDEAAGGAAAAAAEAGAASGEQAAAPGEEAAAGEEGAAGGDPQEAKPQEAAVAPEKPPASDETKAAEEPSKVEEKKAEEAGASAAACEAPSAAGPGAPPEQEAAPAEEPAAAAASSACAAPSQEAQPECSPEAPPAEAAE	3.833	0.5836
Pre-rRNA-processing protein TSR1 homolog (protein, UniProt Q2NL82 1-804, looked up) Pre-rRNA-processing protein …: MAAHRPGPLKQQNKAHKGGRHRGRGSAQRDGKGRLALKTLSKKVRKELSRVDQRHRASQLRKQKKEAVLAEKRQLGGKDGPPHQVLVVPLHSRISLPEAMQLLQDRDTGTVHLNELGNTQNFMLLCPRLKHRWFFTSARPGDLHVVLDMAKVADTILFLLDPLEGWDSTGDYCLSCLFAQGLPTYTLAVQGISGLPLKKQIDTRKKLSKAVEKRFPHDKLLLLDTQQEAGMLLRQLANQKQQHLAFRDRRAYLFAHAVDFVPSEENNLVGTLKISGYVRGQTLNVNRLLHIVGYGDFQMKQIDAPGDPFPLNPRGIKPQKDPDMAMEICATDAVDDMEEGLKVLMKADPGRQESLQAEVIPDPMEGEQTWPTEEELSEAKDFLKESSKVVKKVPKGTSSYQAEWILDGGSQSGGEGDEYEYDDMEHEDFMEEESQDESSEEEEEYETMTIGESVHDDLYDKKVDEEAEAKMLEKYKQERLEEMFPDEVDTPRDVAARIRFQKYRGLKSFRTSPWDPKENLPQDYARIFQFQNFTNTRKSIFKEVEEKEVEGAEVGWYVTLHVSEVPVSVVECFRQGTPLIAFSLLPHEQKMSVLNMVVRRDPGNTEPVKAKEELIFHCGFRRFRASPLFSQHTAADKHKLQRFLTADMALVATVYAPITFPPASVLLFKQKSNGMHSLIATGHLMSVDPDRMVIKRVVLSGHPFKIFTKMAVVRYMFFNREDVLWFKPVELRTKWGRRGHIKEPLGTHGHMKCSFDGKLKSQDTVLMNLYKRVFPKWTYDPYVPEPVPWLKSEISSTVPQGGME	3.379	0.5288
